Data as given in patent US20070082002A1 (IDEC PHARMACEUTICALS, published 2007).

B1: RF-1 human monoclonal antibody to RSV F-protein (antibody, human IgG1, V domains shown)
VH: QVQLQESGPVVVKPTETLTLTCTVSGFSLSNPRMGVTWIRQPPGKALEWLGNIFSSDEKSFSPSLKSRLTTSQDTSRSQVVLSLTNVDPVDTATYYCARVGLYDINAYYLYYLDYWGQGTLVTVSS
VL: DIQMTQSPSSLSASVGDRVTITCRAGQRIASYLNWYQHKPGKAPKLLIYAGSNLHRGVPSRFSGGGSGTDFTLTINSLQPEDFATYYCQQAYSTPWTFGPGTKVEIK
notes: Tested as natural human IgG1 kappa, protein A purified from supernatant of the EBV-positive tumor cell line from hu-SPL-SCID mouse #6
B2: RF-2 human monoclonal antibody to RSV F-protein (antibody, human IgG1, V domains shown)
VH: QVQLQESGPALVKPTQTLTLTCTFSGFSLSTRGMSVNWIRQPPGKALEWLARIDWDDDTFYSASLKTRLSISKDTSKNQVVLRMTNVDPVDTATYFCARASLYDSDSFYLFYHAYWGQGTVVTVSS
VL: DIQMTQSPSSLSASVGDRVTITCRASQSIASYVNWYQQKPGKAPKVLIFASANLVSGVPSRFSGSGSGTVFTLTISNLQPEDFATYFCQQSYTNFSFGQGTKLEIK
notes: Tested as natural human IgG1 kappa, protein A purified from supernatant of the tumor cell line from hu-SPL-SCID mouse #15; The early preparation held at least two antibody populations

Legend:
[1] = target: T1, RSV fusion (F) protein, affinity purified from HEp-2 cells infected with the Long strain of RSV (respiratory syncytial virus, Long …, UniProt P12568 26-109; P12568 137-574); test: ELISA, plate coated with purified F-protein, GAH IgG-HRP detection
T1 construct: mature; also called RSV F-protein; soluble F-protein
T1 sequence (P12568 26-109, chain 1 of 2): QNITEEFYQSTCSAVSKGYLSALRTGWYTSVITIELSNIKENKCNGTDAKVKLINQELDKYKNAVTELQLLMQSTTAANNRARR
T1 sequence (P12568 137-574, chain 2 of 2): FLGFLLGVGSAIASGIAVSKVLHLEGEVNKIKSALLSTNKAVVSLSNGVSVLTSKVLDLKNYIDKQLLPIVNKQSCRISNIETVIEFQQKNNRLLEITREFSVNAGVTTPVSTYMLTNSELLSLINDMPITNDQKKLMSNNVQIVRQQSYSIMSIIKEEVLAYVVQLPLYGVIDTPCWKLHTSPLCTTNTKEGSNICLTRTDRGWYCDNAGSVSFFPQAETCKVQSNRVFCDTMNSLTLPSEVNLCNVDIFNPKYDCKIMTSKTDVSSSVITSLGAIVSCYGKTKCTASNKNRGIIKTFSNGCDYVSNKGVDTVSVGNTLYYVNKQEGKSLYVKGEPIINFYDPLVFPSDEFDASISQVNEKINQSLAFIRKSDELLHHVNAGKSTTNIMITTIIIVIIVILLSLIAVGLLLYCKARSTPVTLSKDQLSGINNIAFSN

[2] = target: T1, RSV fusion (F) protein, affinity …; test: plasmon resonance on an IASYS machine, antibody bound covalently, F-protein in solution
[3] = target: F-protein of RSV MR 144 (Type A) (respiratory syncytial virus, MR 144 …); test: cell-based or functional assay
[4] = target: F-protein of RSV 18537 (Type B) (respiratory syncytial virus, strain …, UniProt P13843 26-574); test: cell-based or functional assay
F-protein of RSV 18537 (Type B), sequence (P13843 26-574): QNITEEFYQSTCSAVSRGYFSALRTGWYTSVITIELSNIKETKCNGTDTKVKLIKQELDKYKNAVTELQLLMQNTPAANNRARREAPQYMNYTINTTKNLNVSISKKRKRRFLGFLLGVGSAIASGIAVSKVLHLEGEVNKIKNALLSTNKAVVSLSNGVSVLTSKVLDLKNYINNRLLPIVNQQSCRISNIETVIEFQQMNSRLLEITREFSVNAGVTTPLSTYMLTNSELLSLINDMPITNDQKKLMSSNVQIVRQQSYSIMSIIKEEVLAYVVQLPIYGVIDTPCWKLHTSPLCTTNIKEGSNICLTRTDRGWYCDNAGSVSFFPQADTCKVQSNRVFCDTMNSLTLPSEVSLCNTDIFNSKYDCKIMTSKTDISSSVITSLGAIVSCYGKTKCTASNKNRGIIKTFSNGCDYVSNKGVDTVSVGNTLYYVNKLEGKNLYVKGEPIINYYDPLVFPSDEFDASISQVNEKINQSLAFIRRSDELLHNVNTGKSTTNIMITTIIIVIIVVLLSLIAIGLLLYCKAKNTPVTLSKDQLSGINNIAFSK

[5] = target: F-protein of RSV RS Long (Type A prototype) in infected VERO cells (respiratory syncytial virus, Long …, UniProt P12568 26-574); test: cell-based or functional assay
F-protein of RSV RS Long (Type A prototype) in infected VERO cells, sequence (P12568 26-574): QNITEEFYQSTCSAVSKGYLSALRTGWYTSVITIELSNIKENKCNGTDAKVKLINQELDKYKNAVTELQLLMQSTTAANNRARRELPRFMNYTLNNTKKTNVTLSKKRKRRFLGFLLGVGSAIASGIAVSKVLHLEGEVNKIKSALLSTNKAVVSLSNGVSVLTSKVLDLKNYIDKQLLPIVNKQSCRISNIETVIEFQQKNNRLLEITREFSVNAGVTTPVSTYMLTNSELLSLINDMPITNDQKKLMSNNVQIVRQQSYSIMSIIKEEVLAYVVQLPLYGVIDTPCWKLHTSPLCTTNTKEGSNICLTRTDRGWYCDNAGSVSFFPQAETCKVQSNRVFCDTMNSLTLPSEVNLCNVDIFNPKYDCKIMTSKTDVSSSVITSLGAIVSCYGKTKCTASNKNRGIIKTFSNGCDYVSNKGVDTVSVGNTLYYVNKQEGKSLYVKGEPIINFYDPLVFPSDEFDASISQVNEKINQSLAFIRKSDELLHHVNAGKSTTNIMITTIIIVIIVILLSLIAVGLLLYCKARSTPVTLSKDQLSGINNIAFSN

[6] = target: F-protein of RSV RS 6556 (Type B clinical isolate) in infected VERO cells (respiratory syncytial virus, RS 6556 …); test: cell-based or functional assay
[7] = target: T1, RSV fusion (F) protein, affinity …; test: titration micro calorimetry, RF-2 and F-protein in solution

Binder	EC50 [1] [µg/mL]	Kd [2] [nM]	Infection Neutralization Activity ED50 titer [3] [µg/mL]	Infection Neutralization Activity ED50 titer [4] [µg/mL]	Fusion Inhibition activity ED50 titer [5] [µg/mL]	Fusion Inhibition activity ED50 titer [6] [µg/mL]	Kd [7] [nM]
B1	0.0006	~0.1	0.03	0.03	0.66	0.04	–
B2	0.001	–	0.008	0.012	3.3	0.4	2
